T1: human CAPRIN-1 protein expressed on the surface of human cancer cells (human, UniProt Q14444 2-709)
T1 sequence: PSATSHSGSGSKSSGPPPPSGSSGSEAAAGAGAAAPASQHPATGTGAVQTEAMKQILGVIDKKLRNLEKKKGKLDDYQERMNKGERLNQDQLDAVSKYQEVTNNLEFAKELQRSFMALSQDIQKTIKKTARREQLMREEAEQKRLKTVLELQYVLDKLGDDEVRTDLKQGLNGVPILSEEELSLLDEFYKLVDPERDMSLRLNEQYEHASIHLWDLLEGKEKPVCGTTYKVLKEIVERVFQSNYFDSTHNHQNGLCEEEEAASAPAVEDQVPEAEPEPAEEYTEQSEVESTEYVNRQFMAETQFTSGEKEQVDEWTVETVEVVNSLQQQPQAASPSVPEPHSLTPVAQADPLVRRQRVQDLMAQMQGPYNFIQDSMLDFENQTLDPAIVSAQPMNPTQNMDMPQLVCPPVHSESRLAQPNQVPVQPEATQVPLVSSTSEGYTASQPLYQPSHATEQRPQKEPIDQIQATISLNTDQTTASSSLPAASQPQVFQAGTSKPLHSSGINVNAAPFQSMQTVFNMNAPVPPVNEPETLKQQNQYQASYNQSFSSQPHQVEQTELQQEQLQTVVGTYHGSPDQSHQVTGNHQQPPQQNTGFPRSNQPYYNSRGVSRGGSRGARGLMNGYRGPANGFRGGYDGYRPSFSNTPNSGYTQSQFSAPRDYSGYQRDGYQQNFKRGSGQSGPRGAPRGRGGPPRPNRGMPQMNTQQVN


target: T1, human CAPRIN-1 protein expressed on the …; assay: cell-based or functional assay

Binder	ADCC activity against MDA-MB-157	CDC activity against MDA-MB-231V
anti-CAPRIN-1 monoclonal antibody #1 (antibody, V domains shown) VH: EVQLHQFGAELVKPGASVKISCKASGYTFTDYNMDWVKQSHGKSLEWIGDINPNYDSTSYNQKFKGKATLTVDKSSSTAYMELRSLTSEDTAVYYCARSRSYDYEGFAYWGQGTLVTVSA VL: DIQMTQSPASLSASVGETVTITCRASGNIHNYLAWYQQKQGKSPQLLVYNAKTLADGVPSRFSGSGSGTQYSLKINSLQPEDFGSYYCQHFWSTLTFGAGTKLELKR	≥ 20%	≥ 30%
anti-CAPRIN-1 monoclonal antibody #4 (antibody, V domains shown) VH: EVQLHQFGAELVKPGASVKISCKASGYTFTDYNMDWVKQSHGKSLEWIGDINPNYDSTSYNQKFKGKATLTVDKSSSTAYMELRSLTSEDTAVYYCARSRSYDYEGFAYWGQGTLVTVSA VL: SGDRVSLSCRASQSISNYLHWYQQKSHESPRLLIKYASQSISGIPSRFSGSGSGTDFTLSINSVETEDFGMYFCQQSNSWPYTFGAGTKLEIKQ	≥ 20%	≥ 30%
anti-CAPRIN-1 monoclonal antibody #3 (antibody, V domains shown) VH: EVQLHQFGAELVKPGASVKISCKASGYTFTDYNMDWVKQSHGKSLEWIGDINPNYDSTSYNQKFKGKATLTVDKSSSTAYMELRSLTSEDTAVYYCARSRSYDYEGFAYWGQGTLVTVSA VL: DIQLTQSPASLSASVGETVTITCRASGNIHNYLAWYQQKQGKSPQLLVYNAKTLADGVPSRFSGSGSGTQYSLKINSLQPEDFGSYYCQHFWSTLTFGGGTKLEIK	≥ 20%	≥ 30%
anti-CAPRIN-1 monoclonal antibody #7 (antibody, V domains shown) VH: LQESGAELARPGASVKLSCKASGYTFTSYWMQWVKQRPGQGLEWIGAIYPGDGDTRYTQKFKGKATLTADKSSSTAYMQLSSLASEDSAVYYCARGEYGNYFAYWGQGTTVTVSS VL: TSDASLGERVTITCKASQDINSYLSWFQQKPGKSPKTLIYRANRLVDGVPSRFSGSGSGQDYSLTISSLEYEDMGIYYCLQYDEFPLTFGGGTKLEIKQ	≥ 20%	≥ 30%
